In patent publication US20100330089A1 (Pfizer, published 2010):
One block for each molecule: values may come before it.

Columns and labels:
CD20 (primary B cells) = CD20 (primary B cells) (UniProt P11836); assay: flow cytometry; conditions: Fc fusion
Human CD20 [1] = biological target: T1, Human CD20 (human, UniProt P11836 1-297); assay: flow cytometry on primary human B cells, binder at 10 ug/ml (second block)
T1 construct: also called Bp35
T1 sequence: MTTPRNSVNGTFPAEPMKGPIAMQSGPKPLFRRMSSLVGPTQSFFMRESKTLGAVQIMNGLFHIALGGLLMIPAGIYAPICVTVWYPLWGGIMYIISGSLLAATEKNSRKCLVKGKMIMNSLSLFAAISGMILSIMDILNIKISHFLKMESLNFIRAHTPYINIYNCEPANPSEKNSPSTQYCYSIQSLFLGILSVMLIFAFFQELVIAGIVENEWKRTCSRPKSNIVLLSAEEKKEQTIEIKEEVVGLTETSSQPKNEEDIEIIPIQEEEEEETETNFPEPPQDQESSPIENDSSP

Human CD20 [2] = biological target: T1, Human CD20; assay: flow cytometry on primary human B cells, binder at 0.04 ug/ml (second block)
Human CD20 [3] = biological target: T1, Human CD20; assay: flow cytometry on primary human B cells, binder at 1.1 ug/ml (second block)
Human CD20 [4] = biological target: T1, Human CD20; assay: flow cytometry on primary human B cells, binder at 0.12 ug/ml (first block)
Human CD20 [5] = biological target: T1, Human CD20; assay: flow cytometry on primary human B cells, binder at 10 ug/ml (first block)
Human CD20 [6] = biological target: T1, Human CD20; assay: cell-based or functional assay
Human CD20 [7] = biological target: T1, Human CD20; assay: flow cytometry on primary human B cells, binder at 0.12 ug/ml (second block)
Human CD20 (human) [8] = biological target: T2, Human CD20 (human) (UniProt P11836); assay: flow cytometry on primary human B cells, binder at 1.1 ug/ml (first block)
T2 sequence: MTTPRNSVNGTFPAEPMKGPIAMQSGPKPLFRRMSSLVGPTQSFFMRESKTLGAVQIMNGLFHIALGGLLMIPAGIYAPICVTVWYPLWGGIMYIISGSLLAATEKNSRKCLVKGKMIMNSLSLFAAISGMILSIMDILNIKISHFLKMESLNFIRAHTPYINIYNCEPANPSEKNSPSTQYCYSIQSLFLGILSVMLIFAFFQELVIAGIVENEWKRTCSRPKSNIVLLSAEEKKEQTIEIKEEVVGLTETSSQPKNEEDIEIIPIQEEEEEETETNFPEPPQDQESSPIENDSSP

Human CD20 (human) [9] = biological target: T2, Human CD20 (human); assay: flow cytometry on primary human B cells, binder at 10 ug/ml (second block)
Human CD20 (human) [10] = biological target: T2, Human CD20 (human); assay: flow cytometry on primary human B cells, binder at 0.04 ug/ml (second block)
Human CD20 (human) [11] = biological target: T2, Human CD20 (human); assay: flow cytometry on primary human B cells, binder at 1.1 ug/ml (second block)
Human CD20 (human) [12] = biological target: T2, Human CD20 (human); assay: flow cytometry on primary human B cells, binder at 0.12 ug/ml (first block)
Human CD20 (human) [13] = biological target: T2, Human CD20 (human); assay: flow cytometry on primary human B cells, binder at 0.37 ug/ml (first block)
Human CD20 (human) [14] = biological target: T2, Human CD20 (human); assay: flow cytometry on primary human B cells, binder at 10 ug/ml (first block)
Human CD20 (human) [15] = biological target: T2, Human CD20 (human); assay: cell-based or functional assay
Human CD20 (human) [16] = biological target: T2, Human CD20 (human); assay: flow cytometry on primary human B cells, binder at 0.12 ug/ml (second block)
Human CD20 [17] = biological target: T1, Human CD20; assay: flow cytometry on five human B-lymphoma cell lines
Procedure: (§1) Each of these cell lines was derived from a distinct non-Hodgkin's B-cell lymphoma patient. Briefly, increasing concentrations of CD20-binders were incubated with 100,000 BCL for 30 min at 4° C. Cells were then washed twice with PBS containing 1% BSA to remove unbound antibody and then a FITC labeled goat anti-human (H+ L) secondary antibody (100 fold diluted) was added for 30 min at 4° C. The cells were again washed twice to remove unbound secondary antibody and then resuspended in 1% formaldehyde (in PBS) with 1% BSA. Fluorescence intensity of each sample was measured using a Becton Dickinson FACSORT flow cytometer. Results are expressed as the geometric mean (GeoMean) of the fluorescent intensity.

Human CD20 [18] = biological target: T1, Human CD20; assay: flow cytometry on NU-DHL1, Ramos, SU-DHL4, SU-DHL5 and WSU-DLCL2 cells; confirmed by immunofluorescence on Ramos and WSU-DLCL2
Procedure: as §1

EC50 (CD20 (primary B cells)): 0.279 µg/mL
Molecule: TRU-015

MFI (Human CD20 [1]): 124 MFI
MFI (Human CD20 [2]): 19.9 MFI
MFI (Human CD20 [3]): 53.4 MFI
MFI (Human CD20 [4]): 42.8 MFI
MFI (Human CD20 [5]): 149 MFI
% lysis (CDC on Ramos cells), 0.12 ug/ml (Human CD20 [6]): 16.3 % lysis
% lysis (CDC on Ramos cells), 0.37 ug/ml (Human CD20 [6]): 38.8 % lysis
% lysis (CDC on Ramos cells), 1.1 ug/ml (Human CD20 [6]): 56.1 % lysis
% lysis (CDC on Ramos cells), 10 ug/ml (Human CD20 [6]): 67.7 % lysis
% lysis (CDC on Ramos cells), 1 nm (Human CD20 [6]): 19.8 % lysis
% lysis (CDC on Ramos cells), 4 nm (Human CD20 [6]): 26.2 % lysis
% lysis (CDC on Ramos cells), 11 nm (Human CD20 [6]): 49.7 % lysis
% lysis (CDC on Ramos cells), 100 nm (Human CD20 [6]): 86.1 % lysis
MFI (Human CD20 [7]): 31.4 MFI
Molecule: TRU-015 (Fc fusion)

MFI (Human CD20 (human) [8]): 173 MFI
MFI (Human CD20 (human) [9]): 172 MFI
MFI (Human CD20 (human) [10]): 43.1 MFI
MFI (Human CD20 (human) [11]): 93 MFI
MFI (Human CD20 (human) [12]): 106 MFI
MFI (Human CD20 (human) [13]): 137 MFI
MFI (Human CD20 (human) [14]): 199 MFI
% lysis (CDC on Ramos cells), 0.12 ug/ml (Human CD20 (human) [15]): 56.5 % lysis
% lysis (CDC on Ramos cells), 0.37 ug/ml (Human CD20 (human) [15]): 60.2 % lysis
% lysis (CDC on Ramos cells), 1.1 ug/ml (Human CD20 (human) [15]): 57.1 % lysis
% lysis (CDC on Ramos cells), 10 ug/ml (Human CD20 (human) [15]): 82.5 % lysis
% lysis (CDC on Ramos cells), 1 nm (Human CD20 (human) [15]): 67.6 % lysis
% lysis (CDC on Ramos cells), 4 nm (Human CD20 (human) [15]): 65.1 % lysis
% lysis (CDC on Ramos cells), 11 nm (Human CD20 (human) [15]): 66.3 % lysis
% lysis (CDC on Ramos cells), 100 nm (Human CD20 (human) [15]): 81.9 % lysis
MFI (Human CD20 (human) [16]): 82.3 MFI
Molecule: RITUXAN (rituximab) (antibody)

binding result (Human CD20 [17]): binds
B1: 2Lm20-4 (Fc fusion, not shown: a dimerising Fc or GST)
chain: EIVLTQSPATLSLSPGERATLSCRASSSVSYIVWYQQKPGQAPRLLIYAPSNLASGIPARFSGSGSGTDFTLTISSLEPEDFAVYYCQQWSFNPPTFGQGTKVEIKDGGGSGGGGSGGGGSSQVQLVQSGAEVKKPGASVKVSCKASGYTFTSYNMHWVRQAPGQGLEWMGAIYPGNGDTSYNQKFKGRVTMTRDTSTSTVYMELSSLRSEDTAVYYCARSYYSNSYWYFDLWGRGTLVTVSS
notes: Humanized SMIP as named without a hinge suffix

binding result (Human CD20 [18]): binds
B2: 018011 (Fc fusion)
chain: EIVLTQSPATLSLSPGERATLSCRASQSVSYIVWYQQKPGQAPRLLIYAPSNLASGIPARFSGSGSGTDFTLTISSLEPEDFAVYYCQQWSFNPPTFGQGTKVEIKDGGGSGGGGSGGGGTGEVQLVQSGAEVKKPGESLKISCKGSGYSFTSYNMHWVRQMPGKGLEWMGAIYPGNGDTSYNQKFKGQVTISADKSISTAYLQWSSLKASDTAMYYCARSYYSNSYWYFDLWGRGTLVTVSS
notes: not shown: called human IgG1

binding result (Human CD20 [17]): binds
B3: 018008 (Fc fusion, not shown: a dimerising Fc or GST)
chain: EIVLTQSPATLSLSPGERATLSCRASQSVSYMHWYQQKPGQAPRLLIYAPSNLASGIPARFSGSGSGTDFTLTISSLEPEDFAVYYCQQWSFNPPTFGQGTKVEIKDGGGSGGGGSGGGGTGEVQLVQSGAEVKKPGESLKISCKGSGYSFTSYNMHWVRQMPGKGLEWMGAIYPGNGDTSYNQKFKGQVTISADKSISTAYLQWSSLKASDTAMYYCARVVYYSNSYWYFDLWGRGTLVTVSS
notes: as for B1
